According to patent US20120149881A1 (Genentech, published 2012):
Values joined by “and” are separate entries in the source; they are usually repeats but may differ in a detail not shown here. Equal entries are not always repeated.

T1: M1′ peptide 4 (human)
T1 peptide: SAQSQRAPDRVLCHS

T2: rhesus IgE/M1′ expressed on transduced Daudi cells (human IgE/primate M1′ cassette, rhesus) (rhesus monkey)
T2 construct: The construct is described as a 'human IgE/primate M1′ cassette'; also called Rhesus M1′
T2 chain: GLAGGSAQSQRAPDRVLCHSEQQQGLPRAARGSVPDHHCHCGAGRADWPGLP

T3: cyno IgE/M1′ expressed on transduced Daudi cells (human IgE/primate M1′ cassette, cynomolgus) (cynomolgus monkey)
T3 construct: The construct is described as a 'human IgE/primate M1′ cassette'; also called Cyno M1′
T3 chain: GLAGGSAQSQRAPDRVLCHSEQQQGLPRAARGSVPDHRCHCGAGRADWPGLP

T4: M1′ peptide 8 (human)
T4 peptide: PRAAGGSVPHPRCH

T5: M1′ peptide 7 (human)
T5 peptide: GQQQGLPRAAGGSVP


Assays:
[1] = biological target: T6, human IgE with the M1′ sequence (long form of membrane IgE) expressed on transduced BJAB or Daudi cells (human, UniProt P01854 116-546); experiment: competitive ECL binding on BJAB-IgE/M1′ cells vs biotinylated 26A11 or 47H4, 1st IC50 column
T6 construct: Full-length heavy and light chains of the U266 IgE B cell receptor, retrovirally expressed; also called IgE/M1′; IgE-M1′

[2] = biological target: T7, human IgE CH3-CH4-M1′/Fc fusion protein (human); experiment: SPR Biacore 2000, M1′-Fc immobilized
T7 construct: also called M1′ (immobilized)

M1′ peptide 4 = biological target: T1, M1′ peptide 4; experiment: ELISA on coated antigen, relative OD450/650
Experimental: (§1) 15 peptides were generated spanning the sequence surrounding and including human M1′ (Clifford Quan) (FIG. 5A). Peptides were resuspended in either dH20 or 50% DMSO. […] 0.05% Tween-20, 10 ppm Proclin., 0.2% BgG, 0.25% Chaps, 5 mM EDTA, 0.35M NaCl]. […] Plates were then incubated for 2 hours at room temperature. Murine antibody plates were washed 3 times and then anti-mouse IgG1-Biotin (BD Biosciences (A85-1) #553441) was added (1:10,000, 100 μl per well) and incubated for 1 hour at RT. Following 3 washes, SA-HRP (BD Biosciences #554066) was added (1:20,000, 100 μl per well) and incubated for 1 hour. Human IgG1 antibody plates were washed as before and anti-hulgG.Fc-HRP (Jackson ImmunoResearch (#109-036-098)) was added (1:10,000, 100 μl per well) and incubated for 1 hour at RT. Once secondary incubations were complete, plates were washed 6 times and TMB substrate (BD OptEIA #555214) was added (100 μl per well). The substrate-HRP reaction was stopped with 1M H3PO4 after ˜4 minutes. Plates were then read at 450/650. Data was represented as relative OD (OD₄₅₀/CD650).

[3] = biological target: T2, rhesus IgE/M1′ expressed on transduced …; experiment: Scatchard analysis on cells expressing rhesus IgE/M1′
[4] = biological target: T7, human IgE CH3-CH4-M1′/Fc fusion protein; experiment: SPR Biacore 2000, IgG immobilized, M1′-Fc analyte
[5] = biological target: T6, human IgE with the M1′ sequence (long …); experiment: Scatchard Human M1' (nM), overall Mean of three experiments
Experimental: (§2) The BJAB or Daudi cells expressing various forms of IgE with or without M1′ (Human, Rhesus, Cyno) were prepared for binding in cold Binding buffer composed of base media, with 10 mM HEPES pH 7.4, and 2% FBS as well as 40 ug/ml human IgG. Cells are diluted to concentration of 1.7×10⁶ cells/ml, and kept on ice until they are added to the assay. The proteins/antibodies are iodinated with the Iodogen method. Various concentrations of cold protein are prepared in triplicate, using a 1:2 dilution starting with the saturation concentration and ending at a concentration of zero, with a total of 14 concentrations. Hot protein of a single concentration is added to all dilutions compete with the cold protein. Lastly the cells are added to the hot and cold protein mixture, 250,000 cells per sample were used. Assay is kept at 4° C. for 4 hours, shaking. Each sample is then collected and filtered on membrane, washed at least 3 times with binding buffer, allowed to dry and then counted for 1 minute using Perkin Elmer Wizard 1470 Auto Gamma Counter.

[6] = biological target: T6, human IgE with the M1′ sequence (long …); experiment: Scatchard, iodinated antibody on IgE/M1′ cells
[7] = biological target: T7, human IgE CH3-CH4-M1′/Fc fusion protein; experiment: SPR Biacore A100, M1′ immobilized
[8] = biological target: T6, human IgE with the M1′ sequence (long …); experiment: Scatchard Human M1' (nM), column Mean of exp. 2
Experimental: as §2

[9] = biological target: T6, human IgE with the M1′ sequence (long …); experiment: competitive ECL binding on BJAB-IgE/M1′ cells vs biotinylated 26A11 or 47H4, 2nd IC50 column
[10] = biological target: T6, human IgE with the M1′ sequence (long …); experiment: number printed in the titration panel; FIG. 3M calls these numbers 'Scatchard Results' (BJAB-Long cells)
Experimental: (§3) In addition to relative affinity determinations by antibody titration and FACs detection, we also determined affinities of selected anti-MP antibodies to BJAB cell lines expressing IgE long form using Scatchard analysis. BJAB-Long cells were prepared for binding in cold Binding buffer composed of base media, with 10 mM HEPES pH 7.4, and 2% FBS as well as 40 μg/ml human IgG. Cells were diluted to a concentration of 1.7×10⁶ cells/ml, and kept on ice until added to the assay. The antibodies were iodinated with Iodogen method. Various concentrations of unlabelled antibody were prepared in triplicate, using a 1:2 dilution starting with the saturation concentration and ending at a concentration of zero, with a total of 14 concentrations. Iodinated antibody of a single concentration was added to all dilutions of the competitor unlabelled antibody. Lastly 250,000 BJAB-Long cells were added to each mixture of iodinated and unlabelled antibody. The samples were incubated at 4° C. for 4 hours, shaking. Each sample was then collected and filtered on a membrane, washed at least 3 times with binding buffer, allowed to dry and then measured for 1 minute using a Perkin Elmer Wizard 1470 Auto Gamma Counter.

[11] = biological target: T6, human IgE with the M1′ sequence (long …); experiment: Scatchard Human M1' (nM), column Mean of exp. 3
Experimental: as §2

[12] = biological target: T3, cyno IgE/M1′ expressed on transduced …; experiment: Scatchard analysis on cells expressing cyno IgE/M1′
[13] = biological target: T6, human IgE with the M1′ sequence (long …); experiment: Scatchard analysis on cells expressing human IgE/M1′
Experimental: as §2

M1′ peptide 8 = biological target: T4, M1′ peptide 8; experiment: ELISA on coated antigen, relative OD450/650
Experimental: as §1

M1′ peptide 7 = biological target: T5, M1′ peptide 7; experiment: ELISA on coated antigen, relative OD450/650
Experimental: as §1

[14] = biological target: T6, human IgE with the M1′ sequence (long …); experiment: Scatchard Human M1' (nM), column Mean of exp. 1
Experimental: as §3, with “Iodinated antibody of a single concentration was added to all dilutions of the competitor unlabelled antibody. Lastly 250,000 BJAB-Long cells were added to each mixture of iodinated and unlabelled antibody. The samples were incubated at 4° C. for 4 hours, shaking.” left out
The BJAB or Daudi cells expressing various forms of IgE with or without M1′ (Human, Rhesus, Cyno) were prepared for binding in cold Binding buffer composed of base media, with 10 mM HEPES pH 7.4, and 2% FBS as well as 40 ug/ml human IgG. […] Each sample is then collected and filtered on membrane, washed at least 3 times with binding buffer, allowed to dry and then counted for 1 minute using Perkin Elmer Wizard 1470 Auto Gamma Counter.

[15] = biological target: T6, human IgE with the M1′ sequence (long …); experiment: Scatchard Human M1' (nM), overall Mean of two experiments
Experimental: as §2

[16] = biological target: T6, human IgE with the M1′ sequence (long …); experiment: Scatchard Human M1' (nM), column Measured; iodinated antibody on cells expressing human IgE/M1'
Experimental: as §2

T6 sequence (P01854 116-546 I515L limits assumed): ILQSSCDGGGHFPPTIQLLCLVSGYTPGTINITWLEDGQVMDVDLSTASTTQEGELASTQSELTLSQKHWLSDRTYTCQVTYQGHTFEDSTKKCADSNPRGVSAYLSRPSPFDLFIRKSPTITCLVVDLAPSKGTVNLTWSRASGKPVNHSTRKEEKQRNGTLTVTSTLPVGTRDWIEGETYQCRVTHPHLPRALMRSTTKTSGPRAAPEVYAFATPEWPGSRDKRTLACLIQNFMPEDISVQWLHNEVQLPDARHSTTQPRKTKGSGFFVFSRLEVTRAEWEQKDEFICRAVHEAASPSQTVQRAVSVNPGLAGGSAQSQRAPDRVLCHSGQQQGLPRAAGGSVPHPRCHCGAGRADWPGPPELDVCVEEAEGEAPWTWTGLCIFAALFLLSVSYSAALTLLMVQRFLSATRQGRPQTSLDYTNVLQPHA
T7 sequence (chain, as listed by the source limits assumed): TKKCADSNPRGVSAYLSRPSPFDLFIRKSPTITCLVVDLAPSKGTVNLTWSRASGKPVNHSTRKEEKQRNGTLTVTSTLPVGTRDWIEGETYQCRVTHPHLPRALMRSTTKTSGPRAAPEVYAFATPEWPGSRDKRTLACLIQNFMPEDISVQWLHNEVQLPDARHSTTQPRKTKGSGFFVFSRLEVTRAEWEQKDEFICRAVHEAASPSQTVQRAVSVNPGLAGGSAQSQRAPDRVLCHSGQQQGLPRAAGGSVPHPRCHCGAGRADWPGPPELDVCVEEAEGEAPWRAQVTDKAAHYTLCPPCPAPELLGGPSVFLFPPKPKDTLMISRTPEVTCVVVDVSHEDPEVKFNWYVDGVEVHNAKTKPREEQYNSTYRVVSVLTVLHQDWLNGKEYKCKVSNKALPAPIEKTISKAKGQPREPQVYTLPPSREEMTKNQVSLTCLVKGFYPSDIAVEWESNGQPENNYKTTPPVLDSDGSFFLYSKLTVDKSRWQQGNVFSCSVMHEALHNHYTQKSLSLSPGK

Row | IC50 [1] | Kd [2] | binding result (M1′ peptide 4) | Kd [3] | Kd [4] | Kd [5] | Kd [6] | Kd [7] | Kd [8] | IC50 [9] | Kd [10] | Kd [11] | Kd [12] | Kd [13] | binding result (M1′ peptide 8) | binding result (M1′ peptide 7) | Kd [14] | Kd [15] | Kd [16] | Binder
1 | 62 nM | 12 nM | binds | 0.77 nM | 1.5 nM | 0.57 nM | 0.4 nM | 5.6 nM | 0.54 nM | 57 nM | 0.39 nM | 0.39 nM | 0.97 nM | 0.79 nM |  |  |  |  |  | murine anti-IgE/M1′ antibody 47H4 (antibody, V domains shown, mIgG1 hybridoma antibody; also called mu47H4; 47H4 mIgG1) VH: EVKLVESGGGLVQPGGSRKLSCAASGFTFSDYGMAWVRQAPGKGPEWVAFISDLAYTIYYADTVTGRFTISRENAKNTLYLEMSSLRSEDTALYYCARDNWDAMDYWGQGTSVTVSS VL: DIVLTQTPLSLPVSLGDQASISCRSSQSLVHNNGNTYLHWYLQKPGQSPKLLIYKVSNRFSGVPDRFSGSGSGTDFTLKISRLEAEDLGVYFCSQNTLVPWTFGGGTKVEIKR
2 | 12 nM |  |  |  | 5.1 nM |  | 1.6 nM | 0.3 nM | 1.75 nM |  |  |  |  | 2.3 nM | binds | binds | 2.14 nM | 1.94 nM | 1.68 nM and 2.59 nM and 1.2 nM | murine anti-IgE/M1′ antibody 26A11 (antibody, V domains shown, mIgG1 hybridoma antibody; also called mu26A11; 26A11 mIgG1) VH: EVQLQQSGPELVKPGASVKMSCKASGYTFTDYYMMWVKQSHGKSLEWIGDINPNNYDTSYNQKFKGKATLTVDKSSSTAYIQLNSLTSEDSAVYYCASKAYWGQGTLVTVSA VL: DIQMTQTTSSLSASLGDRVTITCRSSQDISNSLNWYQQKPDGPVKLLIYSTSRLHSGVPSRFSGSGSGTDYSLTISNLEQEDLATYFCQQGHTLPWTFGGGTKVEIKR
